B1: anti-IFNAR1 antibody 9D4 (parental, unmodified) (antibody, V domains shown)
VH: EVQLVQSGAEVKKPGESLKISCKGSGYIFTNYWIAWVRQMPGKGLESMGIIYPGDSDIRYSPSFQGQVTISADKSITTAYLQWSSLKASDTAMYYCARHDIEGFDYWGRGTLVTVSS
VL: EIVLTQSPGTLSLSPGERATLSCRASQSVSSSFFAWYQQKPGQAPRLLIYGASSRATGIPDRLSGSGSGTDFTLTITRLEPEDFAVYYCQQYDSSAITFGQGTRLEIK
notes: Whole IgG with unmodified Fc; the TM variant was engineered on human IgG1 and IgG1 isotype controls were used; Biotinylated in some ELISAs; also called 9D4-WT; 9D4WT
B2: modified anti-IFNAR1 antibody 9D4-DM (Double Mutant) (antibody, human IgG4, V domains shown)
VH: B1 VH
VL: B1 VL
notes: Biotinylated in some ELISAs
B3: human FcγRI (CD64) (receptor, UniProt P12314 16-288, looked up)
chain: QVDTTKAVITLQPPWVSVFQEETVTLHCEVLHLPGSSSTQWFLNGTATQTSTPSYRITSASVNDSGEYRCQRGLSGRSDPIQLEIHRGWLLLQVSSRVFTEGEPLALRCHAWKDKLVYNVLYYRNGKAFKFFHWNSNLTILKTNISHNGTYHCSGMGKHRYTSAGISVTVKELFPAPVLNASVTSPLLEGNLVTLSCETKLLLQRPGLQLYFSFYMGSKTLRGRNTSSEYQILTARREDSGLYWCEAATEDGNVLKRSPELELQVLGLQLPTP
B4: anti-IFNAR1 antibody 4G5 (antibody, V domains shown)
VH: QVQLQQWGAGLLKPSETLSLTCAVYGGSFSNYYWSWIRQPPGKGLEWIGEIILSGSTNYNPSLKSRVTISVDTSKNQFSLNLTSVTAADTAVYYCARESKWGYYFDSWGQGTLVTVSS
VL: AIQLTQSPSSLSASVGDRVTITCRATQDISIALVWYQQKPGKAPELLIYDASGLGSGVPSRFSGSGSGTDFTLTISSLQPEDFATYYCQQFNSYPYTFGQGTKLEIK
notes: Biotinylated for IHC
B5: modified anti-IFNAR1 antibody 9D4-TM (Triple Mutant) (antibody)
VH: EVQLVQSGAEVKKPGESLKISCKGSGYIFTNYWIAWVRQMPGKGLESMGIIYPGDSDIRYSPSFQGQVTISADKSITTAYLQWSSLKASDTAMYYCARHDIEGFDYWGRGTLVTVSSASTKGPSVFPLAPSSKSTSGGTAALGCLVKDYFPEPVTVSWNSGALTSGVHTFPAVLQSSGLYSLSSVVTVPSSSLGTQTYICNVNHKPSNTKVDKRVEPKSCDKTHTCPPCPAPEFEGGPSVFLFPPKPKDTLMISRTPEVTCVVVDVSHEDPEVKFNWYVDGVEVHNAKTKPREEQYNSTYRVVSVLTVLHQDWLNGKEYKCKVSNKALPASIEKTISKAKGQPREPQVYTLPPSREEMTKNQVSLTCLVKGFYPSDIAVEWESNGQPENNYKTTPPVLDSDGSFFLYSKLTVDKSRWQQGNVFSCSVMHEALHNHYTQKSLSLSPGK
VL: EIVLTQSPGTLSLSPGERATLSCRASQSVSSSFFAWYQQKPGQAPRLLIYGASSRATGIPDRLSGSGSGTDFTLTITRLEPEDFAVYYCQQYDSSAITFGQGTRLEIKRTVAAPSVFIFPPSDEQLKSGTASVVCLLNNFYPREAKVQWKVDNALQSGNSQESVTEQDSKDSTYSLSSTLTLSKADYEKHKVYACEVTHQGLSSPVTKSFNRGEC
notes: Labelled with europium, Alexa647 or biotin in some assays; also called 9D-TM; Alexa647-9D4-TM; copies: 2 + 2

Key:
[1] = target: human interferon alpha receptor 1 (IFNAR1), on cells (human) (UniProt P17181); assay: cell-based or functional assay
[2] = target: T1, human interferon alpha receptor 1 (IFNAR1), on cells (human, UniProt P17181 28-557); assay: europium-labelled antibody binding to HEK 293F cells, Kd from binding curves (GraphPad Prism)
T1 construct: whole, on cells; For PBMCs, monocytes and THP-1 cells it names only the cells
T1 sequence (looked up): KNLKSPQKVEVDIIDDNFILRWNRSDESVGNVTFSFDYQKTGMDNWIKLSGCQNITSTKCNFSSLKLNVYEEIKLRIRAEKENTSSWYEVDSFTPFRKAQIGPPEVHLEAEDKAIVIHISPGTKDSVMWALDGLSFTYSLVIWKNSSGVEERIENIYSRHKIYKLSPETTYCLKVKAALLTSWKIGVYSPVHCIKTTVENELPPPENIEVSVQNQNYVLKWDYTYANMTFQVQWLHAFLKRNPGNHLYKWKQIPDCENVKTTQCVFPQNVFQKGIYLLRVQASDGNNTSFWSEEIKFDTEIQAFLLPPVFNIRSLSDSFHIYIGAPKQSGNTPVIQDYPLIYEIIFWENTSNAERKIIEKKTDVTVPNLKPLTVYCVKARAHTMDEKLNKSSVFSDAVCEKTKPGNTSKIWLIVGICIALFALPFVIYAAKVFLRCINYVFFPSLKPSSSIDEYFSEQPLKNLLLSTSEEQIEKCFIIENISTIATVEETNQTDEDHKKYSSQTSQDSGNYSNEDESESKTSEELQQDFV
Protocol: Methods: 200,000 HEK 293F cells were seeded in a round bottom, 96-well plate using 50 μL RPMI 1640 media supplemented with 10% FBS. […] 25 μL of europium conjugated, serially diluted antibody was then added to appropriate wells and cells and antibodies were agitated gently at room temperature for 1-2 hours. After binding incubation, 150 μL of cell media was added to all wells and plates were spun at 1200 rpm for 5 minutes at room temperature. Plates were quickly decanted and 250 μL cell media was added to all wells. Spins and washes were repeated for a total of 3 washes. Cells were then resuspended in 100 μL cell media. 50 μL of resuspended cells were transferred to 200 μL of DELPHIA enhancement solution (PerkinElmer) in a DELPHIA yellow microtiter plate and Europium emission was measured on a Victor2 Multilabel reader (PerkinElmer). Signal was measured in cps and Kd values and Bₘₐₓ values were generated using GraphPad Prism 4 analysis software.

[3] = target: T1, human interferon alpha receptor 1 …; assay: cell-based or functional assay
[4] = target: T2, ovalbumin (UniProt P01012 2-386); assay: BIAcore, ovalbumin control, antibody at 333 nM, reference-subtracted
T2 construct: Control protein; also called soluble ovalbumin
T2 sequence (looked up): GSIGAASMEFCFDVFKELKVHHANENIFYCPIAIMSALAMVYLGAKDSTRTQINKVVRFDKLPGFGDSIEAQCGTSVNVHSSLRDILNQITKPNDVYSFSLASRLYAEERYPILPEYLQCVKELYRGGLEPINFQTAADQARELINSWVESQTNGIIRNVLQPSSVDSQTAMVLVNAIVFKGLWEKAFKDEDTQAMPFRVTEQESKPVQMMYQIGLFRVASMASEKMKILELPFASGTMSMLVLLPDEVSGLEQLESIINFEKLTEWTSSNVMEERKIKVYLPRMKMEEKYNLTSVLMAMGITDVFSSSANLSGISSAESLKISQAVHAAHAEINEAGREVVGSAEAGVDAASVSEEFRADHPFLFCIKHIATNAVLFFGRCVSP
Protocol: All experiments were performed on a BIAcore 3000 instrument (BIAcore, Inc., Uppsala, Sweden). […] Separately, a blank surface was also prepared on each chip using the identical protocol, minus the protein. This blank surface was used as a reference cell throughout the experiment, and served to correct for both non-specific binding and certain housekeeping artifacts.

[5] = target: T2, ovalbumin; assay: BIAcore, control surface, FcγRI injected at 20 nM, reference-subtracted
Protocol: Methods: All experiments were performed on a BIAcore 3000 instrument (BIAcore, Inc., Uppsala, Sweden). In a typical experiment 1 μM solutions of 9D4 IgGs were used to immobilize anywhere from ˜7000 RUs−˜11,000 RUs of protein onto CM5 sensor chip surfaces using a standard amino coupling protocol (BIAcore, Inc.). Separately, a blank surface was also prepared on each chip using the identical protocol, minus the protein. This blank surface was used as a reference cell throughout the experiment, and served to correct for both non-specific binding and certain housekeeping artifacts.

[6] = target: T1, human interferon alpha receptor 1 …; assay: IHC of human monocytes with biotinylated antibody
Protocol: Human Monocytes: A cell suspension was smeared/spotted directly onto slides. The slides were allowed to dry overnight and then soaked in Acetone for 10 min and allowed to air dry. Prior to use, slides were dipped into 10% neutral buffered formalin for 10 secs and washed 3× in buffer (1×TBS with 0.01% Tween20).
Slide staining: After washing in buffer, slides were treated to quench endogenous peroxidases by treatment with a solution of Glucose Oxidase (1 U/ml, Sigma G0543), B-D(+) Glucose (10 mM, Sigma G5250), Sodium Azide (1 mM, Sigma, S8032) for 1 hour at room temperature. Slides were then rinsed in wash buffer (1×TBS with 0.01% Tween 20). Slides were placed in a protein block solution (1×PBS pH7.2, 0.5% casein(N-Z amine, Sigma CO626), 1% BSA (Sigma A7906), 1.5% Normal Goat serum (Jackson Labs #005-000-001) for 30 min at room temperature. Biotinylated antibody (see above) was applied to the slides by dilution into the protein block solution. Incubation of the slides with the biotinylated antibody was performed at room temperature for 2 hours. Slides were rinsed 3× in wash buffer (1×TBS, 0.01% Tween 20). Antibody detection was performed using a Vectastain Kit (Vector Laboratories). Slides were washed and counterstained with hematoxylin. Slides were dehydrated and mounted with coverslips prior to viewing.

[7] = target: T1, human interferon alpha receptor 1 …; assay: cell-based or functional assay; remark: listed apart in the source
[8] = target: T3, FcγRIIIA variant 158F (low affinity) with Flag tag (UniProt P08637 17-208, limits assumed); assay: ELISA, antibody coated on the plate at 50 µg/ml, Flag-tagged FcγRIIIA titrated, biotin anti-Flag and avidin-HRP
T3 construct: not shown: Flag tag
T3 sequence (P08637 17-208 limits assumed, change not shown): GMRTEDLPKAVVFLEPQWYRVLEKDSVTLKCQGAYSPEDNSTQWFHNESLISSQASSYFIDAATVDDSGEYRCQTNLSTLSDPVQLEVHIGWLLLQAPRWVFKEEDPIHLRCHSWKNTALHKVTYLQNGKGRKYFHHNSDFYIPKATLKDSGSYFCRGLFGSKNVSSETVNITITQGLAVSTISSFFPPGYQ
Protocol: (§1) The plate was washed one hour later and incubated with biotin conjugated anti Flag antibody (Sigma) at 2 μg/ml. After washing 25 μl of HRP conjugated Avidin was added to each well. The unbound materials were removed by washing one hour after incubation. The binding signal was detected with the substrate TMB.

[9] = target: T4, FcγRIIIA variant 158V (high affinity) with Flag tag (UniProt P08637 17-208); assay: as above
T4 construct: also called FcγRIIIA-10 158V; not shown: Flag tag
T4 sequence (P08637 other isoform, or with tags, fused parts or gaps mutant): as the sequence (P08637 17-208 limits assumed, change not shown) above, with F160V counted along it
Protocol: as §1

Row | Molecule | Kd [2] [nM] | IC50, HiL3 ISRE-luciferase reporter assay, neutralization of Human Leukocyte IFN [3] [µg/mL] | IC50, HiL3 ISRE-luciferase reporter assay, neutralization of IFNα 2b [3] [µg/mL] | IC50, HiL3 ISRE-luciferase reporter assay, neutralization of IFNα10 [3] [µg/mL] | IC50, HiL3 ISRE-luciferase reporter assay, neutralization of IFNβ [3] [µg/mL] | IC50, HiL3 ISRE-luciferase reporter assay, neutralization of IFNω [3] [µg/mL] | IC50, luciferase reporter assay, Leukocyte IFN signaling [3] [nM] | IC50, suppression of CD38 expression on cells stimulated with leukocyte-IFN [3] [µg/mL] | IC50, suppression of CD86 expression on cells stimulated with leukocyte-IFN [3] [µg/mL] | IC50, suppression of CD123 expression on cells stimulated with leukocyte-IFN [3] [µg/mL] | binding result [4] | other results
1 | anti-IFNAR1 antibody MDX-1333 |  |  |  |  |  |  |  |  |  |  |  | IC50, HiL3 ISRE-luciferase reporter assay, neutralization of Human Leukocyte IFN [1]: 1.12 µg/mL; IC50, HiL3 ISRE-luciferase reporter assay, neutralization of IFNα 2b [1]: 0.000646 µg/mL; IC50, HiL3 ISRE-luciferase reporter assay, neutralization of IFNα10 [1]: 0.0988 µg/mL; IC50, HiL3 ISRE-luciferase reporter assay, neutralization of IFNβ [1]: 19 µg/mL; IC50, HiL3 ISRE-luciferase reporter assay, neutralization of IFNω [1]: 5.32 µg/mL; IC50, luciferase reporter assay, Leukocyte IFN signaling [1]: 0.04 nM
2 | B1 | 0.06 | 0.021 | 0.00279 | 0.00834 | 0.74 | 0.0101 | 0.01 | 0.0043 | 0.02 | 0.007 | no binding | 
3 | B2 | 0.06 |  |  |  |  |  | 0.01 | 0.04 | 0.02 | 0.021 |  | 
4 | B3 |  |  |  |  |  |  |  |  |  |  |  | binding result [5]: no binding
5 | B4 |  |  |  |  |  |  |  |  |  |  |  | binding result [6]: binds
6 | B5 | 0.03 | 0.0212 | 0.000828 | 0.00429 | 0.261 | 0.0142 | 0.02 | 0.025 | 0.026 | 0.01 | no binding | IC50, luciferase reporter assay, inhibition of IFN-α1 activity [7]: 0.004 nM; IC50, luciferase reporter assay, inhibition of IFN-α2b activity [7]: 0.07 nM; IC50, luciferase reporter assay, inhibition of IFN-α4b activity [7]: 0.02 nM; IC50, luciferase reporter assay, inhibition of IFN-α6 activity [7]: 0.04 nM; IC50, luciferase reporter assay, inhibition of IFN-α7 activity [7]: 0.04 nM; IC50, luciferase reporter assay, inhibition of IFN-α8 activity [7]: 0.03 nM; IC50, luciferase reporter assay, inhibition of IFN-α10 activity [7]: 0.01 nM; IC50, luciferase reporter assay, inhibition of IFN-α14 activity [7]: 0.02 nM; IC50, luciferase reporter assay, inhibition of IFN-α16 activity [7]: 0.02 nM; IC50, luciferase reporter assay, inhibition of IFN-α17 activity [7]: 0.04 nM; IC50, luciferase reporter assay, inhibition of IFN-α21 activity [7]: 0.01 nM; IC50, luciferase reporter assay, inhibition of IFN-β1 activity [7]: 6.8 nM; IC50, luciferase reporter assay, inhibition of IFN-ω activity [7]: 0.1 nM; IC50, luciferase reporter assay, inhibition of Leukocyte Interferon activity [7]: 0.01 nM; binding result [8]: no binding (tested: 4.7 Log ng/ml (50 µg/ml by paragraph 350)); binding result [9]: no binding (tested: 4.7 Log ng/ml (50 µg/ml by paragraph 350)); IC50, PIL-5 ISRE luciferase reporter assay, neutralization of Type I interferons in SLE patient plasma [3]: 0.04 nM; IC50, inhibition of SLE plasma induced CD38 and CD123 expression on human monocytes (flow cytometry) [3]: 0.02 to 0.06 nM

Source: US20110059078A1 (AstraZeneca / MedImmune, published 2011)
